Results reported in article PMC3006652.

Biological target: full-length UvsX (UvsX_(1–391)) (bacteriophage T4) (UniProt P04529)
Assay: non-reducing SDS PAGE

Which results are given for “full-length UvsX (UvsX_(1–391)) (from UniProt P04529 1-391) (natural protein)”?
ratio of dimers and monomers under oxidizing conditions: 0.5; stoichiometry N: 2
